Source: article PMC7275066

Molecular target: HPV52L1-C428A (human papillomavirus type 52 (HPV52))
Assay: SEC; HPSEC on TSK Gel G 5000 pwxl, 10 mM PB pH 6.5, 0.5 M NaCl; serial molar ratios of C175A and C428A mutants; chVLP fraction analysed by SDS-PAGE and western blotting; pentamers to VLP

## HPV16L1-C175A (domain or fragment)
  stoichiometry N (C175A:C428A molar ratio): 1
